According to the supplement of paper PMC12764529:
± gives the half width of the 95% confidence interval.

How the values were obtained:
[1] = folding stability dG unfold (combined trypsin and chymotrypsin); higher = more stable
Method in brief: (§1)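 Unfolding free energy was derived, per protease or combined, against a sequence-predicted unfolded-state K50 and a shared folded-state K50, starting from K50 inferred by Bayesian fitting of sequencing counts. Digestion with trypsin and chymotrypsin was carried out on designed mini-proteins under 80 residues without cysteine in a PA-tagged cDNA display construct. Only designs with AlphaFold2 dimer inter-PAE above 15 were kept.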

[2] = folding stability dG unfold from trypsin proteolysis; higher = more stable
Method in brief: as §1

[3] = folding stability dG unfold from chymotrypsin proteolysis; higher = more stable
Method in brief: as §1

Sequence | folding stability dG unfold [1] [kcal/mol] | folding stability dG unfold [2] [kcal/mol] | folding stability dG unfold [3] [kcal/mol]
SAGGSAGGSAGNWIIRIRWPGKSIMFVLPEGMNVDEIATNIQDEFNYPIDIEVIPPGQPISAGGSAGGSAGG [r11_805_TrROS] | 2.5 ± 0.15 | 2.15 ± 0.071 | 2.65 ± 0.062
SAGGLNFEIIEVSPNHIIARFPDAGYIIMAKIKMEWKPKRDPENGKPRYEPKFKIDIHVIPLKPGQPISAGG [r13_322_TrROS] | 4.09 ± 0.12 | 3.27 ± 0.09 | 4.66 ± 0.17
SAGGSAGTITIMFPIPPGKEVKMKFLFYIPDGYIFNVDITQTGPGYITITIPIYRLPENAKDPDLISAGGSA [r15_909_TrROS] | 4.43 ± 0.26 | 3.2 ± 0.3 | 4.78 ± 0.18
SMETPPEELVERVREYLASQGYTVTSVEVTPLPDGSVRVEVTATPPDASTTLTITVTVPPDGTVVVEVTAQS [r1_460_JUSTAS] | 5.3 ± 0.15 | 3.76 ± 0.2 | 5.26 ± 0.12
SAGGSAGGSAGWRAKVYPPGNGEPIGTIEIPKDWTPSQIKEIADDLQKKFPPGWRVEIEDSAGGSAGGSAGG [r11_1081_TrROS] | 1.38 ± 0.12 | 1.72 ± 0.051 | 0.904 ± 0.093
DYRVVIEDLELVPAPPGTRISMPAWVDHDGVRYGEVESYVDPETGTVTLRLLVEPDGEPRELTLTLPVPPES [r1_47_TrMRF] | 0.625 ± 0.061 | 0.545 ± 0.034 | 0.629 ± 0.061
SAGGSAGGSAGGSTLQSNASGIFTLYLAGSNLTVTLSKAELPKIPADFPIPSSATFTAGSAGGSAGGSAGGS [r4_91_JUSTAS] | -0.196 ± 0.41 | 0.215 ± 0.16 | -0.41 ± 0.51
SAGGSAGGSAGIRIYWDPENGWYRVKYPDPDGKPVDEHPMPPDQLPEFLQAGNIEVEPWPSAGGSAGGSAGG [r11_159_TrROS] | 1 ± 0.095 | 0.759 ± 0.035 | 1.27 ± 0.081
SAGGSAGGSEITITLDEETGELHITVPESVKEVKIKVNGEEKTVTLKPGQTLTIPLENVEIEESAGGSAGGS [r20_26_TrROS_Hall] | 1.7 ± 0.2 | 1.75 ± 0.11 | 1.55 ± 0.063
SKKMTAEELLKKFPNVVFIRLKNGKIIAFNKETKEIYIFNLKTGKVEKIKVTPEELEKLAKENNFEIYPVSA [r9_721_TrROS_Hall] | 3.12 ± 0.12 | 2.48 ± 0.078 | 3.32 ± 0.064
SAGGSAMKIELENAKILDIKPTPDGKKVIFIELPSGKIIAVYEDNKVAVRSKKDPSVKPEDADPVFSAGGSA [r15_692_TrMRF] | 0.892 ± 0.11 | 0.374 ± 0.07 | 1.17 ± 0.046
SAGGSAGGSAGEVVVEEKEDPSGVLTRTETYPDSVVVTEYKIAPDGKTTEPKPTILPKSESAGGSAGGSAGG [r17_72_JUSTAS] | -0.337 ± 0.15 | -0.494 ± 0.1 | -0.583 ± 0.22
SAGGIDLDNMSPEEAKERARDTVREFRELFPPEKKYKFKIKVTIDYRDPGNGRQRTVTVEAPIEFTPDSAGG [r13_385_TrROS] | 0.753 ± 0.24 | 0.636 ± 0.12 | 0.862 ± 0.28
SAKEEEKKKKKEKKKPKPKTVEITVYINGKKIKKIKFNKKTKKITITLENGKKITIPPGMSLEEILKKLSAG [r14_59_TrROS_Hall] | 2.88 ± 0.24 | 2.16 ± 0.16 | 3.37 ± 0.1
SAGGSAMKEGKPAVEVEVTVLIELSAEEIAKLLGKEIKEGDTVLITVKVRVYPDGSVEIEIRVEKLSAGGSA [r15_91_TrROS_Hall] | 3.08 ± 0.17 | 2.87 ± 0.15 | 3.19 ± 0.17
SAGGSAGGSAEKLLIVVEVDTPEQAEALAKALAALLPPGAKITVKPVEVDGKLYLVAEVELSAGGSAGGSAG [r3_92_TrROS_Hall] | 3.75 ± 0.2 | 3.6 ± 0.16 | 3.84 ± 0.21
SAGGSAGGSAGMELTLDEIRALLPAEEIEEVEVVEVDGKLVIRVKRKDGKEVRELVIEKDSAGGSAGGSAGG [r17_374_TrROS_Hall] | 1.73 ± 0.13 | 1.63 ± 0.065 | 1.67 ± 0.054
SAGGSAMERVTITLPDGRELTIERFPEEPNRFVLTFPDGRRLEFEFESPEEGLRAALELVLAGKEGSAGGSA [r15_38_TrMRF] | 3.91 ± 0.06 | 3.34 ± 0.075 | 4.13 ± 0.042
SAGGSAGGSNIKIPSLQIYPNPNGYYISIKIEHEHPDPDGKKHEVEMSFMIWVPPGESLEDLFSAGGSAGGS [r12_889_TrROS] | 2.29 ± 0.12 | 2.1 ± 0.078 | 2.43 ± 0.049
SAGGSAGGSSSMTLTTDDGSTLDSVTRDPNSDTATVTYSGSGETVTATATTLPDGSVVVTVVTSAGGSAGGS [r12_839_JUSTAS] | 1.08 ± 0.11 | 1.26 ± 0.054 | 0.784 ± 0.092
SAGGFNRKVTVRVKVPATGEEFEFEFDFEGLTLEEIKRKIKEEIKKKGIVLKPDNPVVIEITDLEEDPASAG [r5_230_JUSTAS] | 3.98 ± 0.33 | 4.13 ± 0.34 | 3.86 ± 0.21

Sequence | folding stability dG unfold [1] [kcal/mol] | folding stability dG unfold [2] [kcal/mol] | folding stability dG unfold [3] [kcal/mol]
SAGGPKKITIHITEMYRNKNGPYYYRVEIRDGGKPKEYNFPFDSPDEMLDNIEKLADELGLKVEIEPFSAGG [r13_750_TrROS] | 1.88 ± 0.22 | 1.55 ± 0.06 | 2.16 ± 0.16
SAGGSAGGSSKAEELAKKLGVKVKIIDKFTLPGNKKVILAKVKFPGKGYALVLYDGKTPVLLPSAGGSAGGS [r12_279_TrMRF] | 1.96 ± 0.087 | 1.97 ± 0.07 | 1.86 ± 0.099
SAGGSAGGMKQYIVTVTLKSPDGTEHTIELETESLDEVKEKLKNLPDPNLELVELKVVPKEELASAGGSAGG [r6_297_JUSTAS] | 2.25 ± 0.13 | 2.39 ± 0.098 | 2.21 ± 0.035
SAGGIKEAFEAGVEVKDVEVPVLFPDGSEAEVVEVDPVDDGVRVVLRNPVTGELFEREIPPELIEPRPSAGG [r13_340_TrMRF] | 0.484 ± 0.07 | 0.653 ± 0.019 | 0.172 ± 0.053
SAGGSAGGSAGNVTLTRVEVLEGEDDRPLIKATFSFEPGPQVLVFEGDNPDDIEIDVDVGSAGGSAGGSAGG [r17_64_TrMRF] | -0.0491 ± 0.13 | -0.45 ± 0.096 | 0.0818 ± 0.12
SAGGSAGGSAISIMIDDPDDLELAEEIANNIRDHFPDFPIKVEVERMPGNPDYYMIRVEWESAGGSAGGSAG [r3_131_TrROS] | 1.66 ± 0.096 | 1.79 ± 0.073 | 1.52 ± 0.042
SAGGSAGGSPMVVFEFKIKDPKIRKAIDEAKKDGDKSAEIPFPNGWPIRITEIEDNYIRITIWSAGGSAGGS [r12_334_TrROS] | 1.69 ± 0.2 | 1.17 ± 0.058 | 2.18 ± 0.14
SMPNTIEEIRFTFTLPDDTPVESEVDPDGKVTGTYPDGLKIEATLEPDSGKLTVKVTFPDGLPAEATIDLSA [r9_99_TrMRF] | 1.7 ± 0.089 | 1.6 ± 0.09 | 1.78 ± 0.042
SAGGSAIEPGQKVLVLFPEDGGLATLTFDPTTRTVEIEVGGERRTYPVDSLQDVLDELGAEVLSTDSAGGSA [r15_500_TrMRF] | 1.82 ± 0.072 | 2.12 ± 0.037 | 1.74 ± 0.037
SAGGKTTVLIITENPDGTPKAIPIPLDELDIEEIVELIKELVEEGRKLKVFVPADTPPELIKAIKEAASAGG [r13_251_TrMRF] | 3.31 ± 0.056 | 3.4 ± 0.087 | 3.2 ± 0.067
SAGGSAGGSAMTIEQIANELAKKLGVDIKVVVTYENGEKKEYRPDELKNIPPGPFTVEFYTDSAGGSAGGSA [r18_394_TrMRF] | 3.51 ± 0.15 | 3.01 ± 0.096 | 3.71 ± 0.1
SAGGSAGGSAGMVNTTLTTAPDGTRIVTTTFPENPDLVLRTTYAPDGSVLETELVPSSQLSAGGSAGGSAGG [r11_909_JUSTAS] | 1.52 ± 0.026 | 1.98 ± 0.045 | 1.04 ± 0.023
SAGGSAGGSMEPIDLSIVEIKEELLPSGKKKYIVTIETPGKKVKKYTFPPDISIEDIKKLILNSAGGSAGGS [r20_115_JUSTAS] | 2.69 ± 0.12 | 2.17 ± 0.11 | 2.881 ± 0.026
SAGGSAGGSELNIEKIVVLDYDPETGLAYVKIFYGDGEVKEFKVKSLEELKEKFPDVEILEKGSAGGSAGGS [r12_403_TrMRF] | 4.43 ± 0.065 | 3.64 ± 0.12 | 4.57 ± 0.084
SAGGSADELLDKLGLPPDNIRKIKPVEPNPNGMRQLELEWPYKENGKEWRITIMYSPDGIMIDIEPSAGGSA [r15_813_TrROS] | 1.57 ± 0.1 | 0.834 ± 0.061 | 1.87 ± 0.053
SAGGMTLVIKVTNKDGSTLTITFDAETNTITITFPDGTTRTITVPADTTIEELIAALPPDAKVEILPASAGG [r13_696_TrROS_Hall] | 4.55 ± 0.1 | 3.42 ± 0.073 | 4.75 ± 0.11
SAGGSAGGPVIEIEMPKNGFFRVKIWNPGNGKKQEYWIPPDEPDALKSLLDPGIDRVEIEPYPPSAGGSAGG [r6_640_TrROS] | 0.671 ± 0.082 | -0.000886 ± 0.15 | 1.04 ± 0.1
SAGGSAGGSAGGSKKTLTLPITITVTVTYTNEDGSTTETTYTYTLTINFEVSENDTGLLSAGGSAGGSAGGS [r10_1133_TrMRF] | 2.92 ± 0.071 | 2.23 ± 0.062 | 3.269 ± 0.013
SAGGMKVEIEIEEEPETGKVKITIKIDDVEIEIEATEEEIEKLIEEIEKIKAEPKLTEDGKLVPVIGSAGGS [r8_332_TrMRF] | 1.92 ± 0.3 | 1.94 ± 0.24 | 1.8 ± 0.29
SSIIIPGLPAEQARQLAKEFAEHYPNYDVKVEYHPDNGMITVDIEMPHKDPDGKPKGWRKMNINIHIWDPSA [r9_378_TrROS] | 1.23 ± 0.2 | 0.868 ± 0.12 | 1.53 ± 0.17
SAGGSAGGSAKTIKVLVRDKETGEVFEVEAEIVEFDEETGELLIKVRLPNGKTLTLSAEELLSAGGSAGGSA [r18_334_TrROS_Hall] | 3.71 ± 0.21 | 2.54 ± 0.098 | 4.12 ± 0.1
